# Results taken from the nanobody polyreactivity screen of Harvey et al. (2022).
# Assay: yeast display, Sf9 membrane polyspecificity reagent, FACS + sequencing; frameworks hold sequencing errors
# Procedure, shortened: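 Galactose induction of a Saccharomyces cerevisiae BJ5465 synthetic nanobody display library ran 36–48 hours. The cells were then stained for 1 hour at 4 °C with 10% biotinylated, detergent-solubilized Sf9 membrane reagent, pulled down on streptavidin microbeads and FACS-sorted into low and high (top ~1%) gates on expression and reagent-binding fluorescence. Labels for polyreactivity follow the gate of origin.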
sequence,measurement,value
QVQLVESGGGLVQAGGSLRLSRAASGRSYVYAMGWYRQAPGTETEVVAAISTISSSTYYADSVKGRFTISRDNAKNTVYLQMNSLKPEDTAVYYCAADYSQYYYYGWIDSDYWGQGTQVTVSS,polyreactivity (PSR sort gate),high polyreactivity
QVQLVESGGGLVQAGGSLRLSRAASGSTFSGYTMGWYRQAPGKERELVAAISTSGGRTSYADSVKGRFTISRDNAKTSVYLQMNSLKPEDTAVYYCAARRWERRVRPGYYPYDYWGQGTQVTVSS,polyreactivity (PSR sort gate),high polyreactivity
QVQLVESGGGLVQAGGSLRLSSAAAGRLLSRDAMGWYRQAPGKERELVATLSSGGGTYYADSVKGRFTISRDNSKNTVYLQMNSLKRVDTAVYYCAVQAWYGRYYYWGQGTQVTVSS,polyreactivity (PSR sort gate),high polyreactivity
QVQLVESGGGLVQAGGSLRLSSAACGTIFVLNAMGWYRPAPGKERELVAAITNVGSTYYADSVKGRFTISRDNAKNTFYLQMNSLKPEDTAVYYCNADPGEVLVGYDYWGQGTQVTVSS,polyreactivity (PSR sort gate),low polyreactivity
QVQLVESGGGLVQAGGSLRLSSAASGFIFNTNAMGWYRQAPGKERELVAAISGGGSTYYAVSVKGRFTLSRDNAKQTVYLQMNSLKPDDTAVYYCAAVPFYRYDYWGQGTQVTVSS,polyreactivity (PSR sort gate),low polyreactivity
QVQLVESGGGLVQAGGSLRLSSAASGFTFGSYAMGWYRQAPGKERELVAAIRASGGRTYYADSVKGRFTISRDNAKNTVYLQMNSLKPEDTAVYYCAAQLPMGKRYYYWGQGTQVTVSS,polyreactivity (PSR sort gate),high polyreactivity
QVQLVESGGGLVQAGGSLRLSSAASGFTFNANAMGWYRQAPGKERELVAVITRSGGRTYYADSVKGRFTISRDNAKNTVYLQMNSLKPEDTAVYYCAADIGYTYEYYYWGQGTQVTVSS,polyreactivity (PSR sort gate),high polyreactivity
QVQLVESGGGLVQAGGSLRLSSAASGFTFPWYAMGWYSQAPGKEREVVAVISSSGGSTYYADSVKGRFTISRDNAKNTVYLQMNSLKPEDTAVYYCARAYGGRGYDIRYDYWGKGTQVTVSS,polyreactivity (PSR sort gate),high polyreactivity
QVQLVESGGGLVQAGGSLRLSSAASGFTFSHYAMGWYRQAPGKERELVAAITWSGGSTYYADSVKGRFTISRDNAKNTVYLQINSLKPEDTAVYYCAAESYLDGGEYWGQGTQVTVSS,polyreactivity (PSR sort gate),high polyreactivity
QVQLVESGGGLVQAGGSLRLSSAASGFTFVINDMGWYRQAPGKEMELVADITSGGDTYYADSVKGRFTISRDNAKNTVYLQMNSLKPEDTAVYYCAADIYPDWIYLLYGYWGQGTQGTVSS,polyreactivity (PSR sort gate),low polyreactivity
QVQLVESGGGLVQAGGSLRLSSAASGFTFVNYAMGWYRQAPGKERELVAAITRGGSTYYADSVKGRFTISRDNAKNTVYLNMNSLIPEDTAVYYCSARYFYLFRPTEYYYWGQGTQVTVSS,polyreactivity (PSR sort gate),high polyreactivity
QVQLVESGGGLVQAGGSLRLSSAASGFTFVRYTMGWYRQAPGKERELVAAINASGDRTYYADSVKGRFTISRDNAKNTVYLQMNCLIPEDTAVFYCAAGSSLYYSHMGYWGQGTQVTVSS,polyreactivity (PSR sort gate),high polyreactivity
QVQLVESGGGLVQAGGSLRLSSAASGFTFVRYTMGWYRQAPGKERELVAVIRRGGSTYYADSVKGRFTISRDNAKNTVYLQMNSLKPEDTAVYYCNALSALAVEDGYWGLGTQVTVSS,polyreactivity (PSR sort gate),low polyreactivity
QVQLVESGGGLVQAGGSLRLSSAASGFTLGYYAMGWYRQAPGKEREMVAAIRSSGTRTYYADSVKGRFTISRDNAKYTVYLLMNSLKPEDTAVYYCAARTPSYEMDYWGQGTQVTVSS,polyreactivity (PSR sort gate),high polyreactivity
QVQLVESGGGLVQAGGSLRLSSAASGFTLSRYAMGWYRQAPGKERELVASITSGGSTNYADSVKGRFTISRDNAKNTVYLQMNSLKPEDTAVYYCAARYPYRSYKLSHSYARPYGYWGQGTQVTVSS,polyreactivity (PSR sort gate),high polyreactivity
QVQLVESGGGLVQAGGSLRLSSAASGFTYYFYAMGWYRQAPGKERELVAGISTSGTSTYYADSVKGRFTISRDNAKNTVYFQMNRLKPEDTAVSYCAKRGDAIVPTSSKGNYWGQGTQVTVSS,polyreactivity (PSR sort gate),low polyreactivity
QVQLVESGGGLVQAGGSLRLSSAASGIFSYYAIGWYRQAPGKERELVAAISSSGGSTYYADSVKGRFTISRDNAKNTVYLQMNSLKPEDTAVYYCAVSGGTSRRYYYWGLGTQVTVSS,polyreactivity (PSR sort gate),high polyreactivity
QVQLVESGGGLVQAGGSLRLSSAASGIFWNYAMGWYRQAPGKERELVAAISGSGGSTYYADSVKGRFTISRDNAKNTVYLQINSLKPEDTAVYYCAAEPGNHIWIYDYWGQGTQVTVSS,polyreactivity (PSR sort gate),low polyreactivity
QVQLVESGGGLVQAGGSLRLSSAASGIIFRDNAMGWYRQAPGKERELVAAIDSSGGTTYADSVKGRFTISRDNAKNTVYLQMNSLKPEDTAVYYCATEVYWTVSYYGYDYYGGNYYYWGQGTQVTVSS,polyreactivity (PSR sort gate),low polyreactivity
QVQLVESGGGLVQAGGSLRLSSAASGITFRRYAMVWYRQAPGKERELVASITRGGSTSYADSVKGRFTISRDNAKNTVYLQMNSLKPEDTAVYYCNTRFGYQFDYYYWGQGTQVTVSS,polyreactivity (PSR sort gate),high polyreactivity
QVQLVESGGGLVQAGGSLRLSSAASGITFYINAMGWYRPAPGKERELVAALSWPRGSTYYADSVKGRFTISRDNAKNTVYLQMNSLKPEDTAVYYCAGVAYFELSGGGLEYGYDYWGQGTQVSVSS,polyreactivity (PSR sort gate),high polyreactivity
QVQLVESGGGLVQAGGSLRLSSAASGITFYWYAMGWYRQAPGKERELVAASTRSVGSTYYADSVNGRFTISRDNAKNTVYLQMNSLKPEDTAVYYCAADFYYYGFDYWGQGTQVTVSS,polyreactivity (PSR sort gate),low polyreactivity
QVQLVESGGGLVQAGGSLRLSSAASGITLKRYALGWYRHAPGKERELVAAITGRGGGTNYADSVKGRFTISRDNAKNTVYLQMNSLKPEDTAVYYCAARYLQGRYDYWGQGTQVTVSS,polyreactivity (PSR sort gate),high polyreactivity
QVQLVESGGGLVQAGGSLRLSSAASGLTFNYYAMGWYRQAPGKERELVAAISKSGGRTYYADSVKGRFTISRDNAKNTVYLQMNSLKPEDTAVYYCNDVVPRSRYFSWTYDYWGQGTQVTVSS,polyreactivity (PSR sort gate),high polyreactivity
QVQLVESGGGLVQAGGSLRLSSAASGLTYSVYAMGWYRQAPGKERELVAAISGSGGSTYYADSVKGRFTISRDNAKNTVYLQMNSLKPEDTAVYYCAARYDVHYDGMDYWGLGTQVTVSS,polyreactivity (PSR sort gate),low polyreactivity
QVQLVESGGGLVQAGGSLRLSSAASGRIFDTNAMGGYRQAPGKERELVAAISKSGGSTYYADSVKGRFTISRDNAKNTVYLQMNSLKPEDTAVYFCAAKYTSGRVLFEHGYWGQGSQVTVSS,polyreactivity (PSR sort gate),low polyreactivity
QVQLVESGGGLVQAGGSLRLSSAASGRIFLRNALGWYRQAPGKERESVAAITRGGSTNYADSVKGRFTISRDNAKNTVYLQMNSLKPEDTAVYYCNARYPVVRYDYWGQGTQVTVSS,polyreactivity (PSR sort gate),high polyreactivity
QVQLVESGGGLVQAGGSLRLSSAASGRIFQGNSMGWYRQAPGKERELVAAITTSGGSTYYADSVKGRFTISRDNAKNTVYLQMNSLKPEDTAVYYCNVDPRKRSYDYWGQGPQVTVSS,polyreactivity (PSR sort gate),high polyreactivity
QVQLVESGGGLVQAGGSLRLSSAASGRIFSSYAMGWYRQAPGKERELVAAITSGGSTYYADSVKGRFTISRDNAKNTVYLQMNSLKPEDTAVYYCAAVYVQPPATAQHYYYWGQGTQVTVSS,polyreactivity (PSR sort gate),high polyreactivity
QVQLVESGGGLVQAGGSLRLSSAASGRIFVAYAMGWYRQAPAKERELVAAITWSGTSTYADSVKGRFTISRDNAKNTVYLQMNSLKPEDTAVYYCAKKAIVSDQWDKYDYWGQGTQVTVSS,polyreactivity (PSR sort gate),low polyreactivity
QVQLVESGGGLVQAGGSLRLSSAASGRIIRAYAMGWYRQAPGKERELVADISGGSNTNYADSVKGRFTISRDNAKNTVYLQMNSLKPEDTAVYYCAADAGYWESLWYPYGFYWGQGTQVTVSS,polyreactivity (PSR sort gate),low polyreactivity
QVQLVESGGGLVQAGGSLRLSSAASGRTFAVYAMGWYRQAPGKERELVAAISSGGSTYYADSVKGRFTISRDNAKNTVYLPMNSLKPEDTAVYYCTARWGYRRGDWGQGTQVTVSS,polyreactivity (PSR sort gate),high polyreactivity
